The chains are these.
T1: Human recombinant FGF8b (fibroblast growth factor-8b) (human)
T1 chain: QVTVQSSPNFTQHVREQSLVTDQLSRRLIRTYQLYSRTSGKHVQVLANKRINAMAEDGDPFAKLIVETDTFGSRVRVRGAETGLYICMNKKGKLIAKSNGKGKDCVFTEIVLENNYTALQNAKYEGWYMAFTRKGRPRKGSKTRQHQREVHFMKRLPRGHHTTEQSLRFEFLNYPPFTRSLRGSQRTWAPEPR

As usually defined, the Kd is the free concentration of one partner at which half of the binding sites on the other are occupied at equilibrium, for simple one-to-one binding.

The target in the assay is T1, Human recombinant FGF8b (fibroblast …). As to the kind of experiment: SPR.
For Ac-ARGCA-NH2 [Ac-ARGCA-NH2], the Kd is above 3000 µM.
Turning to Ac-ARPCG-NH2 [Ac-ARPCG-NH2], the Kd worked out at 1900 µM.
Ac-ARACA-NH2 [Ac-ARACA-NH2]: the dissociation constant Kd is above 3000 µM.
In the case of Ac-APCRA-NH2 [Ac-APCRA-NH2, partially scrambled peptide], the Kd was above 3000 µM.
For Ac-ARPMA-NH2 [Ac-ARPMA-NH2] the value was above 3000 µM.
Under Ac-GRPCG-NH2 [Ac-GRPCG-NH2] stands above 3000 µM.
Turning to H-ARPCA-NH2 [H-ARPCA-NH2, non-acetylated peptide], the Kd amounted to 2900 µM.

(Values after PMC4537050 (2015).)
